Here are results for 2 molecules from patent publication US20180244785A1 (MERRIMACK PHARMACEUTICALS, published 2018).

For one assay, the target named is T1, 6His-Fc-FGFR1c (human, UniProt P11362 141-376).
T1 construct: not shown: 6His tag and Fc as named in '6His-Fc-FGFR'
T1 sequence: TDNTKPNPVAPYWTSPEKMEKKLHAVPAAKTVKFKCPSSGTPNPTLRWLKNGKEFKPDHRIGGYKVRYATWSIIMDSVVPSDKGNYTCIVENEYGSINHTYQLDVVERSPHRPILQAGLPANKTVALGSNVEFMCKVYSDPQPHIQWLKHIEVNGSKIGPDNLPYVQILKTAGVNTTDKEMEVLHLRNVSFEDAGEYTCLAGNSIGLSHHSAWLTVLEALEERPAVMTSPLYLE
The experiment in a line: competition ELISA, blocks 6His-Fc-FGFR1c binding to coated FGF2. On the procedure:
(§1) ELISA plates were coated with 50 ug/ml Heparin Sulfate (HSPG) (Sigma Aldrich) and incubated overnight at room temperature. Plates were then washed extensively with PBS containing 0.05% v/v Tween20 (PBST). Plates were then blocked with 2.5% BSA in PBST for one hour and washed extensively as before. 40-60 μL of FGF1 or FGF2 was then added to each well at 40 μg/ml and allowed to bind at room temperature for 2 hours. Plates were then washed extensively with PBST as before. Stock solutions of each 6His-Fc-FGFR (FGFR1-4) were prepared at 500 ng/ml in 2% v/v BSA-PBST and each antibody was prepared as a 2×-dilution series in 2% v/v BSA-PBST. Antibodies dilution series and 6His-Fc-FGFR1-4 were diluted in a 1:1 fashion and immediately added to the relative wells of the plate and allowed to bind for 2 hours at room temperature. Plates were washed extensively as before with PBST and the remaining fraction of bound 6His-Fc-FGFR was detected using a polyclonal-anti-His-6-HRP conjugated antibody (Abcam) for one hour at room temperature. After extensive washing with PBST, 50 μl of Pierce Chemiluminescent substrate (Thermo Fisher Scientific, Rockford, USA) was added and plates were measured on an Envision plate reader (Perkin Elmer). Raw data was background corrected and plotted using Prism software. […]
(In general: ELISA stands for enzyme-linked immunosorbent assay.)

The target of another assay is T2, 6His-Fc-FGFR4 (human, UniProt P22455 144-369).
T2 construct: not shown: 6His tag and Fc as named in '6His-Fc-FGFR'
T2 sequence: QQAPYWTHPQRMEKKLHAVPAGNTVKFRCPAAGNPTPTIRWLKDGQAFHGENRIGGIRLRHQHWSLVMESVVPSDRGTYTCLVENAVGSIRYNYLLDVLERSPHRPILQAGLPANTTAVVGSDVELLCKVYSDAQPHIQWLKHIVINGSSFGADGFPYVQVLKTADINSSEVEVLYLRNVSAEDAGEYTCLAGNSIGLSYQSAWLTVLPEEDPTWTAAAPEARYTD
The experiment in a line: competition ELISA, blocks 6His-Fc-FGFR4 binding to coated FGF2. On the procedure:
as §1

The target in assay [1] is soluble FGFR2c receptor protein (human, UniProt P21802 148-377). The experiment in a line: BLI Octet RED96, antibody on anti-hIgG Fc tip. The protocol: (§2) Briefly, the Pall ForteBio Octet RED96 Bio-Layer Interferometry system was used to determine the specificity of anti-FGFR antibodies for FGFR1c, FGFR2c, FGFR3c, and FGFR4. The antibodies and soluble receptor proteins were prepared in PBS at a concentration of 300 nM. First, the candidate antibodies were immobilized on the surface of anti-human IgG Fc biosensor tips for 120 seconds. After immobilization, the biosensors were dipped in PBS solution for 60 seconds (baseline step) to assess assay drift, and determine loading level of antibodies. The baseline step was followed by an association step of 300 seconds wherein the binding interaction between the immobilized antibodies and soluble receptors was measured. Following the association step, the biosensors were dipped into PBS buffer for 600 seconds to measure the dissociation of the bound receptor proteins from the immobilized antibodies. Each binding response was measured and reported real time on a sensorgram trace. For data analysis, a simple 1:1 binding model was used which measures the rate of complex formation of one immobilized antibody and one soluble receptor protein.
Sequence of soluble FGFR2c receptor protein (P21802 148-377): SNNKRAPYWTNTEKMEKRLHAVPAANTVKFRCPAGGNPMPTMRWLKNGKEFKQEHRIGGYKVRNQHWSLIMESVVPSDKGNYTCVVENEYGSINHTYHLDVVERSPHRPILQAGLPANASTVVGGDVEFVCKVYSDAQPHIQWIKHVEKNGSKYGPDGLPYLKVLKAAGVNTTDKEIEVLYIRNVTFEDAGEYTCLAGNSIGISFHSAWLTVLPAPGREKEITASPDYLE
On the technique in general: Biolayer interferometry detects binding as a change in optical thickness at a sensor tip.

For assay [2], the target named is T3, soluble FGFR1c receptor protein (human, UniProt P11362 141-376).
T3 sequence: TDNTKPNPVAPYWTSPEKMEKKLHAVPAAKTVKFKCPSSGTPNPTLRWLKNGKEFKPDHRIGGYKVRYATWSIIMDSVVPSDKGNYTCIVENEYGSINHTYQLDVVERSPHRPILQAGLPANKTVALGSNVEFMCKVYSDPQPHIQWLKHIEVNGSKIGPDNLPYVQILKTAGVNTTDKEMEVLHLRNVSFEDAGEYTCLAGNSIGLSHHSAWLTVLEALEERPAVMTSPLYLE
Kind of assay: BLI Octet RED96, antibody on anti-hIgG Fc tip. On the procedure:
as §2

Assay [3] has as its target T4, soluble FGFR3c receptor protein (human, UniProt P22607 141-372).
T4 sequence: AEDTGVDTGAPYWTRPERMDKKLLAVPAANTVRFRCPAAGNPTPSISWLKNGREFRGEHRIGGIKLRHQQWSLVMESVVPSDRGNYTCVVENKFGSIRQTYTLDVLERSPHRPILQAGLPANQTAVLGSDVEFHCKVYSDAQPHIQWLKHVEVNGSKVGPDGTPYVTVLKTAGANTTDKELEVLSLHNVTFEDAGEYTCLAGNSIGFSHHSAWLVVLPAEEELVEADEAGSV
Kind of assay: BLI Octet RED96, antibody on anti-hIgG Fc tip. On the procedure:
as §2

Assay [4] deals with T5, soluble FGFR4 receptor protein (human, UniProt P22455 144-369).
T5 sequence: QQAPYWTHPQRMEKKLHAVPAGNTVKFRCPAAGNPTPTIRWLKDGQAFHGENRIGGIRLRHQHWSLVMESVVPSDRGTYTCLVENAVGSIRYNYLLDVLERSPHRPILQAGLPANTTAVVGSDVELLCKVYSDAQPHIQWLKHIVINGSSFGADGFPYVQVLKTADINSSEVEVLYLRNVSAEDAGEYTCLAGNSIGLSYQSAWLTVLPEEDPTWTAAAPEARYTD
The experiment in a line: BLI Octet RED96, antibody on anti-hIgG Fc tip. The protocol: as §2

For another assay, the target named is FGFR1 on tumour cells (UniProt P11362 22-822). The experiment in a line: cell-based or functional assay.
Sequence of FGFR1 on tumour cells (P11362 22-822): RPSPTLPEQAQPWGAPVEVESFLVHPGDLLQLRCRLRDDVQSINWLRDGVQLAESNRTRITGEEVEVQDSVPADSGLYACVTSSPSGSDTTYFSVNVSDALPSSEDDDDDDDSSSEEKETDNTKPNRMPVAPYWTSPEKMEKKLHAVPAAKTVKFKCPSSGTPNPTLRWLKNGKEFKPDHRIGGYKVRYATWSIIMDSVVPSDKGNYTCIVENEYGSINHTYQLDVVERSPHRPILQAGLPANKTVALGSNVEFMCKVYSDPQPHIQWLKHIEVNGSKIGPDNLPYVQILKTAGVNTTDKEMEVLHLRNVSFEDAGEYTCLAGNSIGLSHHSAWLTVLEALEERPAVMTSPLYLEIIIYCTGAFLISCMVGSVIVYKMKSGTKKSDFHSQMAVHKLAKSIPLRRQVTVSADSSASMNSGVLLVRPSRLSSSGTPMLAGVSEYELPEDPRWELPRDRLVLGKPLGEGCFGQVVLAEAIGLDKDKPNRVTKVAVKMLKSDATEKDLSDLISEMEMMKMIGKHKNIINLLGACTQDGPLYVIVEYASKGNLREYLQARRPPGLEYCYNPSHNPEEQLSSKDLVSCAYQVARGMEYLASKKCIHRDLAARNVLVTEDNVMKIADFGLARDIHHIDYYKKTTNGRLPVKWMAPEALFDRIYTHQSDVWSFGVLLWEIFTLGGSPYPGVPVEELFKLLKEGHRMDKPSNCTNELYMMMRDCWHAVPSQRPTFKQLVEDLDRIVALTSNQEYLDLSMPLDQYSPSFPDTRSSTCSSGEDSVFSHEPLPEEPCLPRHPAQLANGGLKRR
The target in assay [5] is T6, recombinant human FGFR2c Fc fusion (human, UniProt P21802 148-377).
T6 construct: also called FGFR2IIIc; not shown: Fc part of the FGFR-Fc fusion
T6 sequence (P21802 148-377): as the sequence (P21802 148-377) above
The experiment in a line: solid phase ELISA on coated FGFR-Fc. On the procedure: (§3) For the ELISA assay, the ability of each mAb to cross react with the […] FGF receptors was tested across a concentration curve in order to determine the relative binding across FGFR1-4. FGFR2IIIb was used as a negative control. Black 384-well Maxisorp plates were coated overnight with FGFR-Fc fusions in PBS to 1 ug/ml before washing and blocking with 75 ul/well Pierce Protein Free (PBS) Blocking Buffer for 1 hour at RT. Antibody dilutions were prepared freshly in 1% BSA- PBS+0.05% Tween20 and 25 ul of each antibody was added to wells in duplicate. Plates were incubated at RT for 2 hours, followed by addition of detection antibody at 50 ng/ml in 1% BSA PBS, 0.05% Tween20. ECL substrate (Pierce) was added and plates were read on the EnVision plate reader.

Assay [6] addresses T7, recombinant human FGFR4 Fc fusion (human, UniProt P22455 144-369).
T7 construct: 19 used; also called FGFR4c; not shown: Fc part of the FGFR-Fc fusion
T7 sequence: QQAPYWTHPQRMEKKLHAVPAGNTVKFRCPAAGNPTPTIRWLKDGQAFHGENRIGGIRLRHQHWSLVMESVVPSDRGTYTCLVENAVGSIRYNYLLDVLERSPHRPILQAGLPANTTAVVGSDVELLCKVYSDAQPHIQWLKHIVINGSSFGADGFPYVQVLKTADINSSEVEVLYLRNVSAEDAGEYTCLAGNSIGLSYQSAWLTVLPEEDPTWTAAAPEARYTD
The experiment in a line: solid phase ELISA on coated FGFR-Fc. The protocol:
as §3

Assay [7] concerns the target T8, recombinant human FGFR3c Fc fusion (human, UniProt P22607 141-372).
T8 construct: also called FGFR3IIIc; not shown: Fc part of the FGFR-Fc fusion
T8 sequence: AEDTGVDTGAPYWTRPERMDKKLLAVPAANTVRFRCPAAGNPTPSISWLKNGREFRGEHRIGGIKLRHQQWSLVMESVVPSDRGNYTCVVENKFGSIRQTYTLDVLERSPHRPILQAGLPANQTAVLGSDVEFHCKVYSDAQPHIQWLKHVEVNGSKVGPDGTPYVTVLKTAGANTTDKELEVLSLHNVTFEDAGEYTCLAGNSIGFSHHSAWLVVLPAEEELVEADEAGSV
Kind of assay: solid phase ELISA on coated FGFR-Fc. The protocol:
as §3

Assay [8] addresses T9, recombinant human FGFR1c Fc fusion (human, UniProt P11362 141-376).
T9 construct: also called FGFR1IIIc; not shown: Fc part of the FGFR-Fc fusion
T9 sequence: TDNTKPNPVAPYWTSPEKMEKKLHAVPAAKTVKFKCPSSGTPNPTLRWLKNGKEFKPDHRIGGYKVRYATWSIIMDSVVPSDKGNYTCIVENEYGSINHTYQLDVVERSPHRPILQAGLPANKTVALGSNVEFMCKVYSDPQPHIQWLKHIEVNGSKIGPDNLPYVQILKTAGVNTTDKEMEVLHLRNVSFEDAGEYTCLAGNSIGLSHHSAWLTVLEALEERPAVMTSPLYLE
The experiment in a line: solid phase ELISA on coated FGFR-Fc. On the procedure:
as §3

The term IC50 denotes the concentration at which inhibition is half-maximal. The low end stands for greater potency in that assay, the high end for weaker potency in that assay. The Kd is a measure of binding affinity in units of concentration. Broadly, the koff is a measure of how fast the partners let go of each other. A high value points to a short-lived complex. As usually defined, the kon is the rate constant with which the complex forms. A low value points to slow association. A word on the EC50: it is the concentration that produces a half-maximal response.

Several values for one entry are separate records, joined by “and”; a condition that tells them apart may be missing. Identical values can stand only once.

B1: Ab15 (antibody, human IgG2, kappa, V domains shown)
VH: EVQLLESGGGVVQPGRSLRLSCAASGFTFSSYAMHWVRQAPGKGLEWVAVISYDGSNKYYADSVKGRFTISRDNSKNTLSLQMNSLRVEDTAIYYCVRGAGRGYTYGPDGFDIWGQGTMVTVSS
VL: DIVMTQTPLSLSVTPGQPASISCTSSRSLLHSDGKTYVYWYVQKSGQPPQLLIYELSNRFSGVPDRFSGSGSRTDFTLKISRVEAEDVGVYYCMQYIEAPLTFGGGTKVEIKR
notes: Format in each assay not spelled out; also called FGF#26
Consider B1, for which the half-inhibitory concentration (IC50) with 6His-Fc-FGFR1c was 3.35 nM; with 6His-Fc-FGFR4, 25.7 nM. Moreover, the Kd in assay [1] was 10.3 nM and 11.8 nM and 11.5 nM; in assay [2], 13.7 nM and 4.72 nM and 7.39 nM; in [3], 8.42 nM and 8.59 nM and 8.21 nM; in assay [4], 11.2 nM and 7.35 nM and 7.88 nM. The koff is 0.00193 s⁻¹ and 0.00234 s⁻¹ and 0.00235 s⁻¹ in [1]; 0.00108 s⁻¹ and 0.00105 s⁻¹ and 0.00102 s⁻¹ in assay [3]; 0.00124 s⁻¹ and 0.00091 s⁻¹ and 0.00101 s⁻¹ in assay [4]. Also, the kon in assay [1] was 183000 M⁻¹ s⁻¹ and 199000 M⁻¹ s⁻¹ and 205000 M⁻¹ s⁻¹; in assay [2], 76500 M⁻¹ s⁻¹ and 48900 M⁻¹ s⁻¹ and 44600 M⁻¹ s⁻¹; in [3], 121000 M⁻¹ s⁻¹ and 123000 M⁻¹ s⁻¹ and 124000 M⁻¹ s⁻¹; in assay [4], 98200 M⁻¹ s⁻¹ and 124000 M⁻¹ s⁻¹ and 128000 M⁻¹ s⁻¹. Also, in the assay with FGFR1 on tumour cells, the “IC50 of pERK inhibition (AlphaScreen SureFire) in NCI-H1581 cells” value is 4.12 nM. Further, the EC50 stood at 0.0147 nM in [5], 7.56 nM in [6], 0.129 nM in [7] and 0.0112 nM in [8].

B2: Ab60 (antibody, human IgG2, kappa, V domains shown)
VH: EVQLLESGGGVVQPGRSLRLSCAASGFDFAGYAMHWVRQAPGKGLEWVAVISYDGSNKYYADSVKGRFTISRDNSKNTLSLQMNSLRVEDTAIYYCVRGAGRGLTYGPDGFDIWGQGTMVTVSS
VL: DIVMTQTPLSLSVTPGQPASISCTSSRSLLHSDGKTYVYWYVQKSGQPPQLLIYELSNRFSGVPDRFSGSGSRTDFTLKISRVEAEDVGVYYCMQYIEAPLTFGGGTKVEIKR
notes: format in the assays not spelled out
For B2, the results for the 50% inhibitory concentration (IC50) with 6His-Fc-FGFR1c and with 6His-Fc-FGFR4 were 3.83 nM and ~7.32 nM, respectively. For the same molecule, the dissociation constant (Kd) in assay [1] came to 6.93 nM; in [2] it was 14.5 nM; in assay [3], 15.4 nM; in assay [4], 12.5 nM. The off-rate (koff) was found to be 0.00188 s⁻¹ in [1], 0.00165 s⁻¹ in assay [2], 0.00239 s⁻¹ in [3] and 0.00169 s⁻¹ in assay [4]. Moreover, the association rate constant (kon) in assay [1] is 254000 M⁻¹ s⁻¹; in [2] it was 111000 M⁻¹ s⁻¹; in [3], 154000 M⁻¹ s⁻¹; in [4], 117000 M⁻¹ s⁻¹. In the assay with FGFR1 on tumour cells, the “IC50 of pERK inhibition (AlphaScreen SureFire) in NCI-H1581 cells” value turned out to be 0.385 nM. The EC50 in assay [5] worked out at 0.0224 nM; in assay [6], 0.31 nM; in [7], 0.0687 nM; in assay [8] it was 0.0117 nM.
